Data taken from PMC4167758.

Assays:
SelK U92C (Homo sapiens) [1] = molecular target: SelK U92C (Homo sapiens) (UniProt Q9Y6D0); assay: redox titration with gel shift on non-reducing SDS-PAGE
SelK U92C (Homo sapiens) [2] = molecular target: SelK U92C (Homo sapiens) (UniProt Q9Y6D0); assay: SDS-PAGE under non-reducing conditions
SelK U92C (Homo sapiens) [3] = molecular target: SelK U92C (Homo sapiens) (UniProt Q9Y6D0); assay: electrospray ionization mass spectrometry
SelK U92S (Homo sapiens) = SelK U92S (Homo sapiens) (UniProt Q9Y6D0); assay: SDS-PAGE at high protein concentration

Work on “SelK U92C (from UniProt Q9Y6D0 2-94) (natural protein)” yielded a stoichiometry N (SelK U92C (Homo sapiens) [1]) of 2, a stoichiometry N (SelK U92C (Homo sapiens) [2]) of 2 and a stoichiometry N (SelK U92C (Homo sapiens) [3]) of 2.

Work on “SelK U92S (from UniProt Q9Y6D0 2-94) (natural protein)” yielded a stoichiometry N (SelK U92S (Homo sapiens)) of 2.
